Reference: a protein production outcome set (Wang et al. 2014)

Assay: label from the status in PepcDB records

Row | Sequence | protein production
1 | MRTFTWRKGSLSKVNTCYVLAGGKSKRFGEDKLLYEIKGKKVIERVYETAKSVFKEVYIVAKDREKFSFLNAPVVLDEFEESASIIGLYTALKHAKEENVFVLSGDLPLMKKETVLYVLENFKEPVSVAKTEKLHTLVGVYSKKLLEKIEERIKKGDYRIWALLKDVGYNEVEIPEELRYTLLNMNTKEDLKRILAIENHY | not failed
2 | MDVRQRLISSMVISLGLTIISEGIVLIGIASLLHISLFFIFPALVIFWLFQWIISPYVVGRGGYEVSPNDPQYGWLYNLVRRIAEESKIKPPRVFVIDAPYPNAFAYGNRLGGMRVGITLPLLNILDVDELTAVIAHEVGHIKHRDVEIGMTIGLIPTVLGYISTLLMNFGYLALFLAADEIELLFAIAALAIGFVIFVVTFILQIFVLWFNRLRESYADYNSFLVLGEGSKALATALAKIEIYMQNIRIDPFTGIIVTAPPVKVEEKDPHLLVEQWLRTKVSAFKDILSTHPYPARRAQMIYRLIYGSNI | failed
3 | MKTLFLQYPACSTCQKAKKWLIENNIEYTNRLIVDDNPTVEELKAWIPLSGLPVKKFFNTSGVVYKELKLSSKLPTMTEEEQIALLATNGKLVKRPLVVTERFVLVGFKPEEWEKL | not failed
4 | MFQTGGLIVFYGLLAQTMAQFGGLPVPLDQTLPLNVNPALPLSPTGLAGSLTNALSNGLLSGGLLGILENLPLLDILKPGGGTSGGLLGGLLGKVTSVIPGLNNIIDIKVTDPQLLELGLVQSPDGHRLYVTIPLGIKLQVNTPLVGASLLRLAVKLDITAEILAVRDKQERIHLVLGDCTHSPGSLQISLLDGLGPLPIQGLLDSLTGILNKVLPELVQGNVCPLVNEVLRGLDITLVHDIVNMLIHGLQFVIKV | failed
5 | MASDAPTGHVSDLDWLMSGLVQRVPHTTSAVLLSCDGLVKSVHGLDPDSADHMAALASGLYSLGRSAGIRFGDGGDVRQVVVELDSTLLFVSTAGSGTCLAVLAGREADAAVLGYEMAMLVKSVRPYLMTAPRQAAAQPPAMRP | failed
6 | MGHHHHHHSHMSHYRPELPAPRTDWSLSDVDQWDTAALADGIKSFLLALPAPLVTPEASAEARRALREAAGPVGPALEPPTLPLHRALTLRFLLQHLGRVARRAPALGPAVRALGATF | failed
7 | MDGAQPKTNFFERLIARLAREPDSAEDVLNLLRQAHEQEVFDADTLTRLEKVLDFAELEVRDAMITRSRMNVLKENDSIERITAYVIDTAHSRFPVIGEDKDEVLGILHAKDLLKYMFNPEQFHLKSVLRPAVFVPEGKSLTALLKEFREQRNHMAIVIDEYGGTSGLVTFEDIIEQIVGDIEDEFDEDESADNIHSVSAERWRIHAATEIEDINAFFGTEYGSEEADTIGGLVIQELGHLPVRGEKVLIGGLQFTVARADNRRLHTLMATRVK | failed
8 | MSKISDNHDHSALQFMKKKVRENGSRDIRQIYVPAYTQVPLPNNMKKQIFFWLGALIFFILFMLVFGSILLPFVAGIVLAYFLNPIVQLLEKFRIRRVFGTILITLFIVVVFVAALIILIPIISWQIQQFMNDGLPVYINRIQTFFVEHDFDWVRRYFGSDPNELQSNIKGLLGQSSDFITSLLNSLLKSGKSLVNIVSLFVVAPVVAFYMLLDWPRMVTAVDSLIPRDHLETVRSIFHEMDRAIAGFVRGQGTACLILGGYYAIGLTITELNFGLLIGMFIGLISFVPYIGTMSGFLLSVGVAWVQFYPNNWGWIIVVMVIFLIGQFIEGYILQPKLVGSSVGLHPVWLMFALFAFSSLFGFTGMLIAVPAAAAVGVLVRFALHTYLNSQMYSRSGNSERLE | failed
9 | GEKIFVRVTSVGRNNCRVDCYGIEYRVPINEIDYGYIDKVDKYVQVGDVVPAIIKELDIDNNIVVVSIKEAKEDPYLGIVKSLNKG | failed
10 | MDKRLIVMHNLSRHYGKQYWWQQNSLEDWLMMILIQRTSSKNVAQAVHNLQPYMQVDRLMALSQSELETLVRPAGFYRQKAQRIHDLLTWFVAQGGSFEKIAEKPAAELRETLLALNGIGNETADVMLMYTFGKKTFVADTYAMRLFNRLGFGPYTNYAKMQADFAPALDQITLDEAREWHALIDEHGKTQVRHAYDDRFLLQPDLTEAAWPPEAVQVEPPHDDPGSGKWRHAADPSAMTHK | failed
11 | MGFLESFVSFIVYLASTCGYVGIFILNMLEYACLPFPSEIVLPAIGASVASGKYSMIYALPISVIGGVVGTLISYSVGMYAGKKVISFAKRKHKKSKSIFEKIDRLFSRYGKITVFLARLLPFTRTYISLFAGAEKVNKIMFVIFSALGITIMDSFYLLLGYFAYDNKSFIEKALRHYSIGLIIIIVIAIFSYYIYKNLKLKKLKKEN | failed
